Experimental data reported in publication PMC5340921.

Target: T1, PPR10 (maize, UniProt B8Y6I0 38-786)
T1 sequence: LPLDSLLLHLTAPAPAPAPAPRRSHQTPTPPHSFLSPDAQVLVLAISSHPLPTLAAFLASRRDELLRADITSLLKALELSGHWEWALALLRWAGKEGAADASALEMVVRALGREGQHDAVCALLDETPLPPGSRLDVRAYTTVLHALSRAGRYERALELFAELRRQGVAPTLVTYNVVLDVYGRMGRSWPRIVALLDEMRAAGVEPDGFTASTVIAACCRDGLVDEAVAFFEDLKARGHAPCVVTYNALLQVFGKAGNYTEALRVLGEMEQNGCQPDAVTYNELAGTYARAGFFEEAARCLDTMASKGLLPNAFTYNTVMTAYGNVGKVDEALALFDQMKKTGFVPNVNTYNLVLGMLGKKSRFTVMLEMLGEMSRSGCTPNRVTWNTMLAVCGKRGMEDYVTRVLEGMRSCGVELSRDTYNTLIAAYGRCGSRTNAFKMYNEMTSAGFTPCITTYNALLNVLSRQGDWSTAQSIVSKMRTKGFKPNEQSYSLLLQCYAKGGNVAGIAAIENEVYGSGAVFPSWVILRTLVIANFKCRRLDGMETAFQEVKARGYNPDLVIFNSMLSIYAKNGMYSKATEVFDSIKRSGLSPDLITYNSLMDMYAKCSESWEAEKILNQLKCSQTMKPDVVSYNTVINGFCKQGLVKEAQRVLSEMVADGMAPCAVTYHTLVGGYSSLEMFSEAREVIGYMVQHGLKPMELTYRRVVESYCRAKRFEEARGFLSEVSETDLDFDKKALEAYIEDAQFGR
Test: EMSA

Binder: GUAUCCUUAACCAUUUC (ssRNA) [atpH WT 17-mer]
- binding result: binds
